Assay results: PMC9697344

Biological target: human epidermal growth factor receptor expressed on M3-EGFR cells (human) (UniProt P00533)

| Substance | average fluorescence of M3-EGFR cell nuclei (anti-His-Tag Alexa Fluor 647) after 2 h incubation with 300 nM MNT (Relative units (RU)) |
| --- | --- |
| DTox-HMP-NLS-EGF modular nanotransporter | 44.3 |
| EGF-DTox-HMP-NLS-[Nrf2-peptide] modular nanotransporter | 44.7 |
